The results in this text go back to patent US20070197430A1, “Conjugates And Therapeutic Uses Thereof” (priority 2004, published 2007).

Bridge positions count the residues as written; N and C are the ends. Peptide text beside a SMILES is read from it.

The subject of data set [1] is pre-B tumor cells from E-mu myc transgenic mice. Put plainly: Cell viability by propidium iodide exclusion, flow cytometry. It is filed as cell-based. The conditions noted are these: Mus musculus, 24 h, read-out: % viable cells at 24 hours. (A flow cytometer gives signals particle by particle.)
Method: After 24 hours incubation at 37° C. in 5% CO2, the cells were washed with PBS and 50 μL of 100 μg/mL solution of propidium iodide was added to each well. The cells were analyzed by flow cytometry (BD Facscan) and the viable cells denoted as the percentage of cells excluding propidium iodide.
Data set [2] is described as follows: Circular dichroism, alpha-helical content of peptides. Particulars: 30% aqueous trifluoroethanol. The data set is classed as physicochemical. Here is the method:
Circular dichroism spectra were obtained using a Jasco Model J-710 spetropolarimeter at 20° C. using the following parameters: path length, 2 mm; step resolution, 0.1 nm; speed, 20 nm/min, accumulation, 4; response, 1 second; bandwidth, 1.0 nm. The peptides were analysed at a concentration of 0.5 mg/mL in 30% aqueous TFE. The alpha-helical content of the peptides were determined by methods described in Yang et al (1986), involving comparisons of spectra with model helical peptides.

A further data set has as its target T1, Bcl-w ΔC29 (Homo sapiens, UniProt Q92843).
T1 sequence (Q92843 1-164 limits assumed): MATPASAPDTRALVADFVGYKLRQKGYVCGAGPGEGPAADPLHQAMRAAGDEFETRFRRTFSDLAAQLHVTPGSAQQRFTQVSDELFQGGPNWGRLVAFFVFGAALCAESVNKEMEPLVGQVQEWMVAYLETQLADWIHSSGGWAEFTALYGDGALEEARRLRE
Put plainly: Alphascreen GST competition assay with biotinylated Bim BH3-26 peptide. It is filed as binding. Particulars: Examples 8 and 9. (In Alpha technology, singlet oxygen from a donor bead excites a nearby acceptor bead.)

The target in data set [3] is GST tagged Bcl w delta C29 protein (UniProt Q92843). In words: competition assay; competitor: biotinylated Bim BH3 peptide.
Data set [4] shares this target. Put plainly: competition assay; compared with the linear 16-mer.
The target is the same in data set [5]. Put plainly: AlphaScreen GST detection; competitor: biotinylated BimBH3 peptide.
The target in data set [6] is T2, Bcl-xL ΔC25 (Homo sapiens, UniProt Q07817). The data set is described as above.
Data set [7] concerns the target 6-His tagged Bcl w delta C10 protein (UniProt Q92843). Put plainly: competition assay; competitor: biotinylated Bim-BH3 peptide.
The target in data set [8] is GST tagged Bcl w delta C29 protein (UniProt Q92843). The description is as above.
In another data set the target is Bcl-2 ΔC22 (Homo sapiens, UniProt P10415). The data set is described as above.
For data set [9], the target named is GST tagged Bcl w delta C29 protein (UniProt Q92843). Put plainly: AlphaScreen GST detection; competitor: biotinylated BimBH3 peptide; second of two values.
Data set [10] concerns the target T2, Bcl-xL ΔC25. The description is as above.
Data set [11] has as its target T2, Bcl-xL ΔC25. Put plainly: SPR, Biacore S51, direct binding. (SPR reads the build-up and loss of mass on a sensor chip optically.)
The target in data set [12] is Mcl-1 ΔC23 (UniProt Q07820). Put plainly: SPR, Biacore S51, direct binding.
In data set [13] the target is Mcl-1 ΔC23 (UniProt Q07820). In words: AlphaScreen GST detection; competitor: biotinylated BakBH3 peptide.
For data set [14], the target named is Mcl-1 ΔC23 (UniProt Q07820). In words: AlphaScreen GST detection; competitor: biotinylated BakBH3 peptide; second of two values.
Data set [15] has as its target GST tagged Bcl w delta C29 protein (UniProt Q92843). In words: competition assay; competitor: biotinylated BIM-BH3 peptide.

On to `COc1cc([C@@H]2c3cc4c(cc3[C@@H](O[C@@H]3O[C@@H]5CO[C@@H](C)O[C@H]5[C@H](O)[C@H]3O)[C@H]3COC(=O)[C@H]23)OCO4)cc(OC)c1O` [Etoposide], for which, in data set [1] (concentration 0.015 μM), the viability at 0.015 µM is 80%. For the same molecule, in [1] (concentration 0.0312 μM), the viability at 0.0312 µM amounted to 50%. The viability at 0.0625 µM in data set [1] (concentration 0.0625 μM) was determined as 21%. In addition, in data set [1] (concentration 0.125 μM), the viability at 0.125 µM is 0%. The viability at 0.25 µM in data set [1] (concentration 0.25 μM) was 0%. Further, in [1] (concentration 0.5 μM), the viability at 0.5 µM was determined as 0%. For the same molecule, the viability at 1 µM in data set [1] (concentration 1.0 μM) was 0%.

Regarding `CC[C@H](C)[C@H](NC(C)=O)C(=O)N[C@@H](C)C(=O)N[C@@H](CCC(N)=O)C(=O)N[C@H]1CCC(=O)NCC(=O)NCCNC(=O)CC[C@@H](C(=O)N[C@@H](Cc2ccccc2)C(N)=O)NC(=O)[C@H](CC(=O)O)NC(=O)CNC(=O)[C@H]([C@@H](C)CC)NC(=O)[C@H](CCCNC(=N)N)NC(=O)[C@H](CCCNC(=N)N)NC(=O)[C@H](CC(C)C)NC1=O` [D, Ac-IAQ-E-LRRIGD-E-F-NH2] (HELM PEPTIDE1{[ac].I.A.Q.E.L.R.R.I.G.D.E.F.[am]}|CHEM1{[O=C(CN[*:1])NCCN[*:2]]}$PEPTIDE1,CHEM1,5:R3-1:R1|PEPTIDE1,CHEM1,12:R3-1:R2$$$V2.0), the “% Helicity” value in data set [2] came out at 16%.

Regarding `CC[C@H](C)[C@H](NC(=O)[C@H](CCCNC(=N)N)NC(=O)[C@H](CCCNC(=N)N)NC(=O)[C@H](CC(C)C)NC(=O)[C@H](CCC(=O)O)NC(=O)[C@H](CCC(N)=O)NC(=O)[C@H](C)NC(=O)[C@@H](NC(=O)[C@H](Cc1c[nH]c2ccccc12)NC(=O)[C@H](C)NC(C)=O)[C@@H](C)CC)C(=O)NCC(=O)N[C@@H](CC(=O)O)C(=O)N[C@@H](CCC(=O)O)C(=O)N[C@@H](Cc1ccccc1)C(=O)N[C@@H](CC(N)=O)C(=O)N[C@@H](C)C(N)=O` [O, Ac-AWIAQELRRJGDEFNA-NH2] (Ac-AWIAQELRRIGDEFNA-NH2), the “binding affinity for Bcl-w ΔC29 compared to the linear 16-mer, in words” value at Bcl-w ΔC29 is “drop in binding”.

Regarding Ac-IWAAQEARRAGDEANA-NH2 [Peptide M (linear) Ac-…-NH2], in data set [3], the IC50 (in general, the concentration needed to halve the response being measured) is 64000 nM. The fold decrease in binding affinity against the linear 16-mer in data set [4] was found to be 25000 fold.

Consider Ac-IAQELRRIGDEF-NH2 (linker 4-11 via 1,5‑diaminopentane) [Acetyl-IAQ(E1)LRRIGD(E2)F-amide with a 1,5-diaminopentane linker (second position)], for which the IC50 in data set [5] was determined as 40 nM; with Bcl-xL ΔC25 [6], 57 nM; in [7], 65 nM; in data set [8], 150 nM; with Bcl-2 ΔC22, 290 nM; in data set [9], 34 nM. Moreover, the IC50 came out at 54 nM in the data set with Bcl-xL ΔC25 [10], 3 nM with Mcl-1 ΔC23 [13] and 3 nM in the data set with Mcl-1 ΔC23 [14]. Also, the Kd in the data set with Bcl-xL ΔC25 [11] and in the data set with Mcl-1 ΔC23 [12] was 10 nM each time.

As to Ac-IAQQLRRIGDQF-NH2 [L2 Ac-…-NH2], the IC50 with Bcl-xL ΔC25 [6] worked out at 960 nM; in the data set with Bcl-xL ΔC25 [10] it was 890 nM; with Mcl-1 ΔC23 [13], 650 nM; with Mcl-1 ΔC23 [14], 660 nM. Besides, the Kd – broadly, the concentration at which binding is half-saturated – with Mcl-1 ΔC23 [12] turned out to be 920 nM.

Ac-IWIAQELRRIGDEFNN-NH2 [Peptide U (linear) Ac-…-NH2] returned a concentration for half-maximal inhibition (IC50) in data set [3] of 5.8 nM. In addition, the fold loss of binding affinity against the linear 16-mer in data set [4] amounted to 2 fold.

As to Ac-EIAQELREIGDEF-NH2 (linker 1-8 via 1,5‑diaminopentane) [Peptide A of Example 7: Ac-E-IAQELR-E-IGDEF-NH2 with a 1,5-diaminopentane linker (first position)], the results for the IC50 (in data set [7]; in data set [8]; in the data set with Bcl-2 ΔC22) were 2600 nM, 1800 nM and 26000 nM, respectively.

In the case of Ac-IWAAQELRRIGDEFNA-NH2 [Peptide I (linear) Ac-…-NH2], in data set [3], the IC50 stood at 360 nM. The fold decrease in binding affinity against the linear 16-mer in data set [4] is 100 fold.

For the molecule Ac-IWIAQELRRIGDEANA-NH2 [Peptide L (linear) Ac-…-NH2], the IC50 in data set [3] was 3500 nM. In data set [4], this molecule yielded a fold decrease in binding affinity against the linear 16-mer of 1000 fold.

In turn, Ac-IWIAQELRRIGDEFNA-NH2 (linker 6-13 via ‑NHCH2C(═O)(CH2)2NH2‑) had an IC50 in data set [15] of 0.3 nM.

Ac-IWIAQELRRIGDEFNA-NH2 (linker 6-13 via 1,5‑diaminopentane) [Peptide E: constrained 16-mer with a pentane linker tethering the two glutamate residues] displayed a half-inhibitory concentration (IC50) in data set [15] of 0.5 nM. Compared with the last molecule, the IC50 is about 1.7-fold higher.

Consider Ac-IAQELRRIGDEF-NH2 [Linear 12mer Ac-…-NH2], for which the IC50 in data set [5] worked out at 820 nM; with Bcl-xL ΔC25 [6] it was 7000 nM; in data set [7], 870 nM; in data set [8] it was 4700 nM; with Bcl-2 ΔC22 it was 240000 nM; in data set [9] it was 800 nM. Moreover, the IC50 in the data set with Bcl-xL ΔC25 [10] was found to be 6300 nM; in the data set with Mcl-1 ΔC23 [13], 400 nM; in the data set with Mcl-1 ΔC23 [14] it was 360 nM. For the same molecule, the Kd with Bcl-xL ΔC25 [11] amounted to 5200 nM; with Mcl-1 ΔC23 [12], 1200 nM.

As for Ac-IWIAQELRRIGDEFNA-NH2 [linear 16-mer Ac-…-NH2], the IC50 in data set [3] and in data set [15] was 2.5 nM in each case.

In the case of Ac-IAQELRRIGDEF-NH2 (linker 4-11 via 1,6‑diaminohexane) [Peptide C: Ac-IAQ-E-LRRIGD-E-F-NH2 with a 1,6-diaminohexane linker], the IC50 came to 230 nM in data set [7], 120 nM in data set [8] and 2600 nM with Bcl-2 ΔC22.

For the molecule Ac-IWIAQEARRIGDEFNA-NH2 [Peptide J (linear) Ac-…-NH2], the IC50 in [3] worked out at 3700 nM. For the same molecule, the fold decrease in binding affinity against the linear 16-mer in data set [4] was 1000 fold.

Regarding Ac-IWIAQELRRIGDEFAN-NH2 [Peptide R (linear) Ac-…-NH2], the half-inhibitory concentration (IC50) in data set [3] was 12 nM. The molecule also showed a fold decrease in affinity against the linear 16-mer in data set [4] of 4 to 5 fold.

B1: Peptide D: Ac-IAQ-E-LRRIGD-E-F-NH2 with a -NHCH2C(═O)NHCH2CH2NH- linker (peptide)
peptide: IAQELRRIGDEF
HELM: PEPTIDE1{[ac].I.A.Q.E.L.R.R.I.G.D.E.F.[am]}|CHEM1{[O=C(CN[*:1])NCCN[*:2]]}$PEPTIDE1,CHEM1,5:R3-1:R1|PEPTIDE1,CHEM1,12:R3-1:R2$$$V2.0
SMILES: CC[C@H](C)[C@H](NC(C)=O)C(=O)N[C@@H](C)C(=O)N[C@@H](CCC(N)=O)C(=O)N[C@H]1CCC(=O)NCC(=O)NCCNC(=O)CC[C@@H](C(=O)N[C@@H](Cc2ccccc2)C(N)=O)NC(=O)[C@H](CC(=O)O)NC(=O)CNC(=O)[C@H]([C@@H](C)CC)NC(=O)[C@H](CCCNC(=N)N)NC(=O)[C@H](CCCNC(=N)N)NC(=O)[C@H](CC(C)C)NC1=O
Turning to B1, the IC50 was found to be 40 nM in data set [7], 160 nM in data set [8] and 6900 nM with Bcl-2 ΔC22.

Take Ac-IWIAQELRRAGDEFNA-NH2 [Peptide K (linear) Ac-…-NH2]: the IC50 in data set [3] was 7.3 nM. For the same molecule, in [4], the fold decrease in binding affinity against the linear 16-mer amounted to 3 fold.
